Test results: paper PMC11898079, “Single-Molecule Imaging of Wood Xylans on Surfaces and Their Interaction with GH11 Xylanase” (Biomacromolecules, 2025)
Where “and” joins values, the source holds several entries; their conditions need not be identical. Equal values may be shown once.

Biological target: the molecule itself
Test: high-speed atomic force microscopy (HS-AFM); xylanase alone on a clean mica surface, tapping mode, 100 mM sodium phosphate buffer pH 6; 2 uL of 12.5 ug/mL xylanase added into 80 uL buffer during imaging; self-association seen as transient dimers and trimers of single molecules on the surface

B1: Endo-1,4-β-D-xylanase from Neocallimastix patriciarum (GH11) (enzyme)
chain: AEFQSFCSSASHSGQSVKVTGNKVGTIGGVGYELWADSGNNSATFYSDGSFSCTFQNAGDYLCRSGLSFDSTKTPSQIGRMKADFKLVKQNSSNVGYSYVGVYGWTRSPLVEYYIVDNWLSPFPPGDWVGNKKHGSFTIDGAQYTVYENTRTGPSIDGDTTFNQYFSIRQQARDCGTIDISAHFDQWEKLGMTMGKLHEAKVLGEAGNVNGGASGTADFPYAKVYIGD
notes: Endo-1,4-β-D-xylanase, glycoside hydrolase family 11, Neocallimastix patriciarum; printed Mw 25,800 g/mol; Commercial enzyme; also called GH11 xylanase; GH11 endoxylanase; source: bought: Megazyme Ltd
stoichiometry N: 2 and 3
